The record followed here is PMC7994000 (Biochimica et biophysica acta. Proteins and proteomics, 2020).

The series “SEC-MALS” deals with the molecule itself. Briefly: SEC-MALS. (Size exclusion chromatography separates by hydrodynamic size, large species first.)
The target of the next series is T1, Full-length human IKK2 (human, UniProt O14920 1-756).
T1 sequence (looked up): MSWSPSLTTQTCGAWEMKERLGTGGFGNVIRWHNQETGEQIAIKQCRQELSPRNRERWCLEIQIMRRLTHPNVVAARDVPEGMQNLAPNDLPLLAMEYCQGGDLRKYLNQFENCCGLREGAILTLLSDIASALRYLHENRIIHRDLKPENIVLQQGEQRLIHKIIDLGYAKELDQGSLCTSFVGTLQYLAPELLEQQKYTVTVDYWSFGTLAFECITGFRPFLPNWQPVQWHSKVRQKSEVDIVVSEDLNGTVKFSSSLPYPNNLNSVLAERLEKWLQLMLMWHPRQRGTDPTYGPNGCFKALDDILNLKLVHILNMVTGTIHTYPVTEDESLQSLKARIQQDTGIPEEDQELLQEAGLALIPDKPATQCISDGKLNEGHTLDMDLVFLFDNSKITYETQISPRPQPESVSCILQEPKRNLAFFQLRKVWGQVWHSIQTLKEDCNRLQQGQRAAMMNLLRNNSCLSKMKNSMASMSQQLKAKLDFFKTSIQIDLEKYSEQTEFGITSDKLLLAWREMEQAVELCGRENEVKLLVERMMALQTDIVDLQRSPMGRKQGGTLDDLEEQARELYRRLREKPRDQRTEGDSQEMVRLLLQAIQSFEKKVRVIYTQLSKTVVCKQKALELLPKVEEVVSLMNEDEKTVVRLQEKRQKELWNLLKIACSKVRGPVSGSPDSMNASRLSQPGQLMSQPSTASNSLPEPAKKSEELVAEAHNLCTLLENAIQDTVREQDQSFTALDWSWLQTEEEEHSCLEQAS
Put plainly: SEC-MALS.

B1: NEMO^1–250 (domain or fragment, human, UniProt Q9Y6K9 1-250, looked up)
chain: MNRHLWKSQLCEMVQPSGGPAADQDVLGEESPLGKPAMLHLPSEQGAPETLQRCLEENQELRDAIRQSNQILRERCEELLHFQASQREEKEFLMCKFQEARKLVERLGLEKLDLKRQKEQALREVEHLKRCQQQMAEDKASVKAQVTSLLGELQESQSRLEAATKECQALEGRARAASEQARQLESEREALQQQHSVQVDQLRMQGQSVEAALRMERQAASEEKRKLAQLQVAYHQLFQEYDNHIKSSVV
Usually stoichiometry N stands for a count of units in the complex or per binding partner. B1: the “stoichiometry N” value in the series “SEC-MALS” turned out to be 2. The binding result in the series with Full-length human IKK2 was “binds”.

B2: NEMO^250–365 (domain or fragment, human, UniProt Q9Y6K9 250-365, looked up)
chain: VGSERKRGMQLEDLKQQLQQAEEALVAKQEVIDKLKEEAEQHKIVMETVPVLKAQADIYKADFQAERQAREKLAEKKELLQEQLEQLQREYSKLKASCQESARIEDMRKRHVEVSQ
Consider B2, for which, in “SEC-MALS”, the “stoichiometry N” value is 2.

B3: NEMO^1–130 (domain or fragment, human, UniProt Q9Y6K9 1-130, looked up)
chain: MNRHLWKSQLCEMVQPSGGPAADQDVLGEESPLGKPAMLHLPSEQGAPETLQRCLEENQELRDAIRQSNQILRERCEELLHFQASQREEKEFLMCKFQEARKLVERLGLEKLDLKRQKEQALREVEHLKR
For the molecule B3, the “stoichiometry N” value in the series “SEC-MALS” came to 2. For the same molecule, the binding result with Full-length human IKK2 is given as “binds”.

B4: NEMO^1–210 (domain or fragment, human, UniProt Q9Y6K9 1-210, looked up)
chain: MNRHLWKSQLCEMVQPSGGPAADQDVLGEESPLGKPAMLHLPSEQGAPETLQRCLEENQELRDAIRQSNQILRERCEELLHFQASQREEKEFLMCKFQEARKLVERLGLEKLDLKRQKEQALREVEHLKRCQQQMAEDKASVKAQVTSLLGELQESQSRLEAATKECQALEGRARAASEQARQLESEREALQQQHSVQVDQLRMQGQSVE
On to B4, for which the binding result in the series “SEC-MALS” and in the series with Full-length human IKK2 was “binds” each time.

B5: NEMO^1–280 (domain or fragment, human, UniProt Q9Y6K9 1-280, looked up)
chain: MNRHLWKSQLCEMVQPSGGPAADQDVLGEESPLGKPAMLHLPSEQGAPETLQRCLEENQELRDAIRQSNQILRERCEELLHFQASQREEKEFLMCKFQEARKLVERLGLEKLDLKRQKEQALREVEHLKRCQQQMAEDKASVKAQVTSLLGELQESQSRLEAATKECQALEGRARAASEQARQLESEREALQQQHSVQVDQLRMQGQSVEAALRMERQAASEEKRKLAQLQVAYHQLFQEYDNHIKSSVVGSERKRGMQLEDLKQQLQQAEEALVAKQEV
As to B5, the binding result in the series “SEC-MALS” and with Full-length human IKK2 was “binds” in each case.

B6: NEMO^1–110 (domain or fragment, human, UniProt Q9Y6K9 1-110, looked up)
chain: MNRHLWKSQLCEMVQPSGGPAADQDVLGEESPLGKPAMLHLPSEQGAPETLQRCLEENQELRDAIRQSNQILRERCEELLHFQASQREEKEFLMCKFQEARKLVERLGLE
With B6, the “stoichiometry N” value in the series “SEC-MALS” amounted to 2.

B7: NEMO^111–250 (domain or fragment, human, UniProt Q9Y6K9 111-250, looked up)
chain: KLDLKRQKEQALREVEHLKRCQQQMAEDKASVKAQVTSLLGELQESQSRLEAATKECQALEGRARAASEQARQLESEREALQQQHSVQVDQLRMQGQSVEAALRMERQAASEEKRKLAQLQVAYHQLFQEYDNHIKSSVV
For the molecule B7, in “SEC-MALS”, the “stoichiometry N” value amounted to 2.
